These results are taken from publication PMC9021867 (Cell, 2022).

B1: β-VHH4 (VHH)
VHH: QVQLQESGGGSVQAGGSLRLSCAASGSTSCSSVMRWYRQAPGKEREFVSSINSDRRTVYADSVKGRFTISQDNAKSTLYLQMNSLKAEDTATYYCQRELYGDSWCQGNYWGQGTQVTVSS
B2: β-VHH1 (VHH)
VHH: QVQLQESGGGSVQAGGSLRLSCVTSGYTYSSANMAWFRQAPGKEREGVAIITPSGRATTYADSVKGRFTISRDNAANTLYLQMNSLKPEDTAMYYCAADTPPYSGLWYAERTYNYWGQGTQVTVSS
B3: β-VHH3 (VHH)
VHH: QVQLQESGGGSVQAGGSLRLSCTASGFTFDDEDMGWYRQAPGNECELVSSIGSLGRRYYADSVKDRFAISQDNAKNTVYLQMNSLKPEDTAVYYCAATKGGSWLDSILASCQGAFGYWGQGTQVTVSS
B4: β-VHH6 (VHH)
VHH: QVQLQESGGGSVQAGGSLRLSCAASSYTISSVCMGWFRQAPGKEREGVAGIAPDGSTGYGDSVKGRFTISKDNAKNTLYLQMNSLKPEDTAMYYCAAASPGRCFLPRTALEPALYYNWGQGTQVTVSS

For the test, the target named is Biotinylated human IL-2Rβ ECD (Homo sapiens, UniProt P14784, biotinylated). The test is described as follows: SPR. A general note: SPR reads the build-up and loss of mass on a sensor chip optically.
Chain of Biotinylated human IL-2Rβ ECD (P14784 27-240): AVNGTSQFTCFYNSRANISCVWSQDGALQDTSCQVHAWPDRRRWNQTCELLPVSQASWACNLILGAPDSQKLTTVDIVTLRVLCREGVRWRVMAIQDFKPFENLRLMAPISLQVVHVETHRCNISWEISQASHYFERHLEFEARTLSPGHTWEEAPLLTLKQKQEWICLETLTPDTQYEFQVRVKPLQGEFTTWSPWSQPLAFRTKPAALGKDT
As for B1, the binding result is “binds”.

With B2, the binding result is “binds”. To B3 belongs “binds”. With B4, the binding result was “binds”.
